Consider one substance from article PMC5643395.

Among the test systems are histone octamer H2A R88E; histone octamer H2A R81A; histone octamer H2A R88A; histone octamer H2A R81E.
Common to all, as to assay: ensemble FRET (microplate), salt-induced disassembly
What all share (conditions): Reconstitution by dialysis from 2 M to 5 mM NaCl in 10 mM Tris-HCl, 0.1 mM EDTA; FRET over NaCl titration (FRET buffer and temperature not in the material) …

Data set [1] has as its system histone octamer H2A R81E/R88E.
Data set [2] deals with histone octamer H2A R81A/R88A.

Regarding Widom 601 170 bp, the K half stood at 455 mM NaCl in the data set on histone octamer H2A R88E; 452 mM NaCl in data set [1]; 568 mM NaCl in data set [2]; 632 mM NaCl in the data set on histone octamer H2A R81A; 668 mM NaCl in the data set on histone octamer H2A R88A; 468 mM NaCl with histone octamer H2A R81E.
